Results: the supplement of paper PMC10567573

B1: MFF (parent)
chain: YTEGISQRMRVPEKLKVAPPNADL
B2: FBXO3 (parent)
chain: DEEERRRRVFDVPIRRRRCSRLF

Variants of: B1
Experiment: protein stability index of a GFP-peptide fusion (GPS, HEK-293T) (PSI 1-6); higher = more stable
Settings: c terminus: a fixed tail appended
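Further: lentivirally expressed fusions sorted by FACS into six bins by GFP to DsRed ratio, PSI derived from sequencing read proportions per bin multiplied by bin number.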

Protein stability index: each site, then its substitutions
D23: A 2.34; C 2.47; E 2.36; F 2.47; G 2.72; H 2.95; I 2.29; K 2.63; L 2.02; M 2.51; N 2.65; Q 2.36; R 2.95; S 2.11; T 2.38; V 2.12; W 2.23; Y 2.57
L24: A 3; C 2.87; D 3.88; E 3.74; F 2.49; G 2.91; H 3.52; I 2.8; K 3; M 2.91; N 3.08; P 2.92; Q 3.14; R 2.89; S 2.86; T 2.95; V 2.61; W 2.14; Y 2.6

Variants of: B2
Experiment: as above
Settings: c terminus: native

Protein stability index: each site, then its substitutions
D1: A 2.65; C 1.58; E 3.14; F 1.92; G 1.91; H 1.87; I 2.83; K 2.27; L 1.97; M 2.97; N 2.05; P 2.55; Q 1.69; S 1.85; T 2.2; V 2.34; W 1.8; Y 2.57
E2: A 1.49; C 1.71; D 3.08; F 1.97; G 2.58; H 1.79; I 2.52; K 1.36; L 1.45; M 1.9; N 3.05; P 2.15; Q 3.19; R 2.33; S 2.21; T 1.65; V 1.95; W 2.25
E3: A 1.88; C 1.94; D 2.63; G 2.19; H 2.18; I 1.99; K 2.68; L 1.48; M 2.53; N 2.79; P 2.32; Q 2.57; R 2.34; S 1.91; T 1.81; V 2.54; Y 1.84
E4: A 1.98; C 2.58; D 3.66; F 2.13; G 2.48; H 1.99; I 2.16; K 1.98; L 1.59; M 3.23; N 1.92; P 2.29; Q 2.72; R 2.9; S 2.08; T 2.14; V 1.86; W 1.73; Y 2.14
R5: A 3.9; C 2.57; D 3.64; E 4.12; F 3.24; G 3.54; H 3.41; I 3.44; K 3.32; L 3.12; M 3.59; N 3.77; P 3.3; Q 4.1; S 3.55; T 3.51; V 3.25; W 2.23; Y 2.85
R6: A 3.51; C 2.83; D 4.26; E 4.16; F 1.35; G 4.09; H 3.17; I 2.36; K 3.35; L 2.69; M 2.58; N 3.87; P 3.79; Q 3.79; S 3.8; T 3.66; V 3.2; W 1.56; Y 1.78
R7: A 3.6; C 2.89; D 4; E 3.88; F 2.61; G 3.64; H 3.06; I 2.8; K 2.79; L 3.19; M 2.3; N 3.8; P 3.71; Q 3.69; S 4.28; T 3.67; V 3.01; W 1.97; Y 2.51
R8: A 3.74; C 2.33; D 3.58; E 3.64; F 1.28; G 4.29; H 3.1; I 2.88; K 2.87; L 2.94; M 2.89; N 3.35; P 3.63; Q 3.66; S 3.01; T 3.86; V 3.66; W 2.4; Y 1.95
V9: A 3.43; C 2.74; D 4.46; E 4.03; F 2.19; G 3.87; H 3.54; I 2.42; K 3.72; L 2.53; M 2.47; N 3.75; P 3.44; Q 3.45; R 2.71; S 3.47; T 3.65; W 2.94; Y 2.64
F10: A 4.88; C 3.43; D 4.51; E 4.16; G 4.62; H 4.08; I 3.84; K 4.19; L 3.06; M 3.87; N 4.45; P 4.32; Q 4.56; R 3.85; S 4.54; T 4.33; V 3.94; W 2.09; Y 3.22
D11: A 2.73; C 1.53; E 2.68; F 1.89; G 2.65; H 2.19; I 2.93; K 2.51; L 2.33; M 2.08; N 3.06; P 3.34; Q 2.4; R 2.25; S 2.75; T 2.84; V 1.99; W 1.76; Y 1.67
V12: A 3.05; C 1.73; D 2.71; E 2.81; F 2.6; G 3.26; H 2.69; I 2.32; K 3.25; L 2.61; M 2.47; N 2.28; P 2.98; Q 3.24; R 3.62; S 3.24; T 2.75; W 2.66; Y 2.78
P13: A 2.46; C 2.98; D 2.15; E 2.15; F 3.42; G 2.24; H 2.95; K 2.9; L 3.65; M 2.19; N 2.07; Q 2.2; R 1.72; S 2.23; T 1.44; V 2.89; W 2.87; Y 2.8
I14: A 2.64; C 2.38; D 2.14; E 2.46; F 2.2; G 3.04; H 2.48; K 3.78; L 2.56; M 2.63; N 2.25; P 3.4; Q 2.53; R 3.33; S 2.49; T 3.66; V 3.27; W 2.7; Y 2.4
R15: A 2.88; C 2.99; D 2.27; E 2.44; F 1.93; G 2.74; H 1.85; I 2.31; K 3.65; L 1.98; M 1.72; N 2.21; P 2.56; Q 2.27; S 2.39; T 2.72; V 2.78; Y 1.88
R16: A 2.53; C 1.91; D 2.22; E 2.55; F 1.93; G 3.45; H 2.23; I 2.2; K 3.51; L 2.19; M 2.21; N 2.21; P 3.45; Q 2.24; S 2.28; T 2.19; V 2.27; W 1.99
